In the supplement of paper PMC5998384:

How the values were obtained:
[1] = test system: HeLa Kyoto; assay: solubility change mitosis vs G1/S (difference of NP-40 vs SDS log2 ratios) (log2 ratio difference); higher = more soluble in mitosis
[2] = test system: HeLa Kyoto; assay: melting temperature (median over replicates), in situ; higher = more thermally stable
[3] = test system: HeLa Kyoto; assay: thermal stability score vs G1/S (z-score of summed log2 fold changes over temperatures); higher = more thermally stable than in G1/S
[4] = test system: HeLa Kyoto; assay: solubility in G1/S (NP-40 vs SDS abundance) (log2 ratio); higher = more soluble; conditions: cell cycle stage: G1/S
[5] = cell cycle stage: early G1 (4.5 h after nocodazole release)
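For melting temperature (median over replicates), in situ in this document: HeLa Kyoto cells synchronized by double thymidine or nocodazole block, proteins quantified by TMT10plex mass spectrometry, three independent biological replicates.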
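For solubility change mitosis vs G1/S (difference of NP-40 vs SDS log2 ratios) in this document: synchronized HeLa Kyoto cells (double thymidine block for G1/S, nocodazole release for mitosis), protein amounts in NP-40 versus SDS lysates quantified by mass spectrometry, three biological replicates.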
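For solubility in G1/S (NP-40 vs SDS abundance) in this document: HeLa Kyoto cells arrested at G1/S by double thymidine block, proteins quantified by TMT10plex mass spectrometry in mild NP-40 versus SDS extracts, three biological replicates.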
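For thermal stability score vs G1/S (z-score of summed log2 fold changes over temperatures) in this document: synchronized HeLa Kyoto cells, proteins quantified by TMT10plex mass spectrometry, three biological replicates, mitosis taken 0.5 h after nocodazole release, G1/S directly after double thymidine block.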

Row | Sequence | solubility change mitosis (log2) [1] | melting temperature ([2]; cell cycle stage: G1/S) [°C] | melting temperature ([2]; cell cycle stage: mitosis) [°C] | thermal stability score [3, 5] | thermal stability score ([3]; cell cycle stage: mitosis) | solubility in G1/S (log2) [4]
1 | MRSAAAAPRSPAVATESRRFAAARWPGWRSLQRPARRSGRGGGGAAPGPYPSAAPPPPGPGPPPSRQSSPPSASDCFGSNGNGGGAFRPGSRRLLGLGGPPRPFVVLLLPLASPGAPPAAPTRASPLGARASPPRSGVSLARPAPGCPRPACEPVYGPLTMSLKPQQQQQQQQQQQQQQQQQQQQQQQPPPAAANVRKPGGSGLLASPAAAPSPSSSSVSSSSATAPSSVVAATSGGGRPGLGRGRNSNKGLPQSTISFDGIYANMRMVHILTSVVGSKCEVQVKNGGIYEGVFKTYSPKCDLVLDAAHEKSTESSSGPKREEIMESILFKCSDFVVVQFKDMDSSYAKRDAFTDSAISAKVNGEHKEKDLEPWDAGELTANEELEALENDVSNGWDPNDMFRYNEENYGVVSTYDSSLSSYTVPLERDNSEEFLKREARANQLAEEIESSAQYKARVALENDDRSEEEKYTAVQRNSSEREGHSINTRENKYIPPGQRNREVISWGSGRQNSPRMGQPGSGSMPSRSTSHTSDFNPNSGSDQRVVNGGVPWPSPCPSPSSRPPSRYQSGPNSLPPRAATPTRPPSRPPSRPSRPPSHPSAHGSPAPVSTMPKRMSSEGPPRMSPKAQRHPRNHRVSAGRGSISSGLEFVSHNPPSEAATPPVARTSPSGGTWSSVVSGVPRLSPKTHRPRSPRQNSIGNTPSGPVLASPQAGIIPTEAVAMPIPAASPTPASPASNRAVTPSSEAKDSRLQDQRQNSPAGNKENIKPNETSPSFSKAENKGISPVVSEHRKQIDDLKKFKNDFRLQPSSTSESMDQLLNKNREGEKSRDLIKDKIEPSAKDSFIENSSSNCTSGSSKPNSPSISPSILSNTEHKRGPEVTSQGVQTSSPACKQEKDDKEEKKDAAEQVRKSTLNPNAKEFNPRSFSQPKPSTTPTSPRPQAQPSPSMVGHQQPTPVYTQPVCFAPNMMYPVPVSPGVQPLYPIPMTPMPVNQAKTYRAVPNMPQQRQDQHHQSAMMHPASAAGPPIAATPPAYSTQYVAYSPQQFPNQPLVQHVPHYQSQHPHVYSPVIQGNARMMAPPTHAQPGLVSSSATQYGAHEQTHAMYACPKLPYNKETSPSFYFAISTGSLAQQYAHPNATLHPHTPHPQPSATPTGQQQSQHGGSHPAPSPVQHHQHQAAQALHLASPQQQSAIYHAGLAPTPPSMTPASNTQSPQNSFPAAQQTVFTIHPSHVQPAYTNPPHMAHVPQAHVQSGMVPSHPTAHAPMMLMTTQPPGGPQAALAQSALQPIPVSTTAHFPYMTHPSVQAHHQQQL [ATXN2] | 0.278 | 52.5 | 51.9 | -0.37 | -1.31 | -0.281
2 | MRSAAKPWNPAIRAGGHGPDRVRPLPAASSGMKSSKSSTSLAFESRLSRLKRASSEDTLNKPGSTAASGVVRLKKTATAGAISELTESRLRSGTGAFTTTKRTGIPAPREFSVTVSRERSVPRGPSNPRKSVSSPTSSNTPTPTKHLRTPSTKPKQENEGGEKAALESQVRELLAEAKAKDSEINRLRSELKKYKEKRTLNAEGTDALGPNVDGTSVSPGDTEPMIRALEEKNKNFQKELSDLEEENRVLKEKLIYLEHSPNSEGAASHTGDSSCPTSITQESSFGSPTGNQMSSDIDEYKKNIHGNALRTSGSSSSDVTKASLSPDASDFEHITAETPSRPLSSTSNPFKSSKCSTAGSSPNSVSELSLASLTEKIQKMEENHHSTAEELQATLQELSDQQQMVQELTAENEKLVDEKTILETSFHQHRERAEQLSQENEKLMNLLQERVKNEEPTTQEGKIIELEQKCTGILEQGRFEREKLLNIQQQLTCSLRKVEEENQGALEMIKRLKEENEKLNEFLELERHNNNMMAKTLEECRVTLEGLKMENGSLKSHLQGEKQKATEASAVEQTAESCEVQEMLKVARAEKDLLELSCNELRQELLKANGEIKHVSSLLAKVEKDYSYLKEICDHQAEQLSRTSLKLQEKASESDAEIKDMKETIFELEDQVEQHRAVKLHNNQLISELESSVIKLEEQKSDLERQLKTLTKQMKEETEEWRRFQADLQTAVVVANDIKCEAQQELRTVKRKLLEEEEKNARLQKELGDVQGHGRVVTSRAAPPPVDEEPESSEVDAAGRWPGVCVSRTSPTPPESATTVKSLIKSFDLGRPGGAGQNISVHKTPRSPLSGIPVRTAPAAAVSPMQRHSTYSSVRPASRGVTQRLDLPDLPLSDILKGRTETLKPDPHLRKSPSLESLSRPPSLGFGDTRLLSASTRAWKPQSKLSVERKDPLAALAREYGGSKRNALLKWCQKKTQGYANIDITNFSSSWSDGLAFCALLHTYLPAHIPYQELNSQEKKRNLLLAFEAAESVGIKPSLELSEMLYTDRPDWQSVMQYVAQIYKYFET [SPECC1] | -0.147 | 52.2 | 51.5 | -1.45 | -1.95 | 0.148
